Experimental findings from US7642244 (Hoffmann-La Roche, dated 2010) are described below.

To fix the notation:
T1: Y5R
T1 sequence (Q15761 whole entry, species assumed, looked up): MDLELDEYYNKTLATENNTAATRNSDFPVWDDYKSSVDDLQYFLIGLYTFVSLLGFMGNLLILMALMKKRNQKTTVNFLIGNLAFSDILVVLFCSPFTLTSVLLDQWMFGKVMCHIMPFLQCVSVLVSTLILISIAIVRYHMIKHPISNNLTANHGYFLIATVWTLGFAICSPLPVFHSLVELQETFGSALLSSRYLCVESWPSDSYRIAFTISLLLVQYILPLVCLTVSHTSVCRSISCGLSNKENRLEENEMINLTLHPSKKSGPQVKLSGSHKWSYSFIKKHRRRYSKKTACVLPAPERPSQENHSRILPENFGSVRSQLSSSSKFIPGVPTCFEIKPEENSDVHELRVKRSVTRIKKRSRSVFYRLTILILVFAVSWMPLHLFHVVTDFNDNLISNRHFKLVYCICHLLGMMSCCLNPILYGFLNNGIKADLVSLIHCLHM

T2: human NPY2 receptor (human, UniProt P49146 1-381)
T2 sequence (looked up): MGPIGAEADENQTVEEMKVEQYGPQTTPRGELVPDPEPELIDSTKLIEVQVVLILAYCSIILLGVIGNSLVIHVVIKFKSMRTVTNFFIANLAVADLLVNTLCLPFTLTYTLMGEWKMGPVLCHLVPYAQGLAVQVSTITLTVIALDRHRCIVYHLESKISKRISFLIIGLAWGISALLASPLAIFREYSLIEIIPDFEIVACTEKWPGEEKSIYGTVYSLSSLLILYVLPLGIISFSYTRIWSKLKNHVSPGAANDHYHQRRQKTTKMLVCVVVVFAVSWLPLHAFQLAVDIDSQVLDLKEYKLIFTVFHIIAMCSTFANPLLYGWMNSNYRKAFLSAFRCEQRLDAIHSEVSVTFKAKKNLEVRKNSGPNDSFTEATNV

B1: Cyclohexylacetyl-Ile-Lys-Pqa-Arg-His-Tyr-Leu-Asn-Trp-Val-Thr-Arg-Gln-(NMe)Arg-Tyr-NH2 (peptide)
peptide: IKXRHYLNWVTRQRY
HELM: PEPTIDE1{[O=C(CC1CCCCC1)[*:2]].I.K.[O=C(Cn1cnc2ccc(N3CCN([*:1])CC3)cc2c1=O)[*:2]].R.H.Y.L.N.W.V.T.R.Q.[meR].Y.[am]}$$$$V2.0
SMILES: CC[C@H](C)[C@H](NC(=O)CC1CCCCC1)C(=O)N[C@@H](CCCCN)C(=O)N1CCN(c2ccc3ncn(CC(=O)N[C@@H](CCCNC(=N)N)C(=O)N[C@@H](Cc4c[nH]cn4)C(=O)N[C@@H](Cc4ccc(O)cc4)C(=O)N[C@@H](CC(C)C)C(=O)N[C@@H](CC(N)=O)C(=O)N[C@@H](Cc4c[nH]c5ccccc45)C(=O)N[C@H](C(=O)N[C@H](C(=O)N[C@@H](CCCNC(=N)N)C(=O)N[C@@H](CCC(N)=O)C(=O)N(C)[C@@H](CCCNC(=N)N)C(=O)N[C@@H](Cc4ccc(O)cc4)C(N)=O)[C@@H](C)O)C(C)C)c(=O)c3c2)CC1
B2: Trimethylacetyl-Ile-Lys-Pqa-Arg-His-Tyr-Leu-Asn-Trp-Val-Thr-Arg-Gln-(NMe)Arg-Tyr-NH2 (peptide)
peptide: IKXRHYLNWVTRQRY
HELM: PEPTIDE1{[CC(C)(C)C(=O)[*:2]].I.K.[O=C(Cn1cnc2ccc(N3CCN([*:1])CC3)cc2c1=O)[*:2]].R.H.Y.L.N.W.V.T.R.Q.[meR].Y.[am]}$$$$V2.0
SMILES: CC[C@H](C)[C@H](NC(=O)C(C)(C)C)C(=O)N[C@@H](CCCCN)C(=O)N1CCN(c2ccc3ncn(CC(=O)N[C@@H](CCCNC(=N)N)C(=O)N[C@@H](Cc4c[nH]cn4)C(=O)N[C@@H](Cc4ccc(O)cc4)C(=O)N[C@@H](CC(C)C)C(=O)N[C@@H](CC(N)=O)C(=O)N[C@@H](Cc4c[nH]c5ccccc45)C(=O)N[C@H](C(=O)N[C@H](C(=O)N[C@@H](CCCNC(=N)N)C(=O)N[C@@H](CCC(N)=O)C(=O)N(C)[C@@H](CCCNC(=N)N)C(=O)N[C@@H](Cc4ccc(O)cc4)C(N)=O)[C@@H](C)O)C(C)C)c(=O)c3c2)CC1
B3: ((PEG-30,000)CH(CH3)CH2CO)Ile-Nle-Pqa-Arg-His-Tyr-Leu-Asn-Trp-Val-Thr-Arg-Gln-(NMe)Arg-Tyr-NH2 (peptide)
peptide: IXXRHYLNWVTRQRY
modifications: (PEG-30,000)CH(CH3)CH2CO (PEG30,000 beta-SBA) on the N-terminal Ile; Nle as second residue; Pqa as third residue; (NMe)Arg as penultimate residue; C-terminal amide (NH2)
B4: Ac-Ile-Lys-Pqa-Arg-His-Tyr-Leu-Asn-Trp-Val-Thr-Arg-Gln-(NMe)Arg-2,6-F2-Tyr-NH2 (peptide)
peptide: IKXRHYLNWVTRQRY
HELM: PEPTIDE1{[ac].I.K.[O=C(Cn1cnc2ccc(N3CCN([*:1])CC3)cc2c1=O)[*:2]].R.H.Y.L.N.W.V.T.R.Q.[meR].[O=C([C@H](Cc1c(F)cc(O)cc1F)N[*:1])[*:2]].[am]}$$$$V2.0
SMILES: CC[C@H](C)[C@H](NC(C)=O)C(=O)N[C@@H](CCCCN)C(=O)N1CCN(c2ccc3ncn(CC(=O)N[C@@H](CCCNC(=N)N)C(=O)N[C@@H](Cc4c[nH]cn4)C(=O)N[C@@H](Cc4ccc(O)cc4)C(=O)N[C@@H](CC(C)C)C(=O)N[C@@H](CC(N)=O)C(=O)N[C@@H](Cc4c[nH]c5ccccc45)C(=O)N[C@H](C(=O)N[C@H](C(=O)N[C@@H](CCCNC(=N)N)C(=O)N[C@@H](CCC(N)=O)C(=O)N(C)[C@@H](CCCNC(=N)N)C(=O)N[C@@H](Cc4c(F)cc(O)cc4F)C(N)=O)[C@@H](C)O)C(C)C)c(=O)c3c2)CC1
B5: H-Ile-Lys-Pqa-Arg-His-Tyr-Leu-Asn-Leu-Val-Thr-Arg-Gln-(NMe)Arg-Cha-NH2 (peptide)
peptide: IKXRHYLNLVTRQRX
modifications: Pqa as third residue; (NMe)Arg as penultimate residue; Cha (Cyclohexyl Alanine) as C-terminal residue; C-terminal amide (NH2)
B6: mixture of ((PEG-30,000)CH2CH2CO)Ile-Lys-Pqa-Arg-His-Tyr-Leu-Asn-Trp-Val-Thr-Arg-Gln-(NMe)Arg-Tyr-NH2 and … (peptide)
peptide: IK[Pqa]RHYLNWVTRQ[NMeR]Y-NH2
modifications: also: mixture: PEG30,000 SPA on N-terminal Ile or on Lys ε-amino (majority on Lys)
B7: ((PEC30,000)CH2Cl2NHCOCH2CH2CO)Ile-Nle-Pqa-Arg-His-Tyr-Leu-Asn-Trp-Val-Thr-Arg-Gln-(NMe)Arg-Tyr-NH2 (peptide)
peptide: IXXRHYLNWVTRQRY
modifications: PEG30,000-SSA (PEG-CH2CH2NHCOCH2CH2CO-) on the N-terminal Ile; Nle as second residue; Pqa as third residue; (NMe)Arg as penultimate residue; C-terminal amide (NH2)

Starred links: 1 amine or outer side, 2 acyl side, 3 side chain; linkers in the order of their positions; H or OH if unused. Non-standard residues stand in square brackets, D forms with d. No end group written: not given here. Pqa = 4-oxo-6-(1-piperazinyl)-3(4H)-quinazoline-acetic acid, O=C(Cn1cnc2ccc(N3CCN([*:1])CC3)cc2c1=O)[*:2]; PEG30,000 SSA = (PEG-30,000)CH2CH2NHCOCH2CH2CO; NMeR = CN[C@@H](CCCNC(=N)N)C(=O)O

For one assay, the target named is Y1R. Put plainly: cell-based or functional assay.
Sequence of Y1R (P25929 whole entry): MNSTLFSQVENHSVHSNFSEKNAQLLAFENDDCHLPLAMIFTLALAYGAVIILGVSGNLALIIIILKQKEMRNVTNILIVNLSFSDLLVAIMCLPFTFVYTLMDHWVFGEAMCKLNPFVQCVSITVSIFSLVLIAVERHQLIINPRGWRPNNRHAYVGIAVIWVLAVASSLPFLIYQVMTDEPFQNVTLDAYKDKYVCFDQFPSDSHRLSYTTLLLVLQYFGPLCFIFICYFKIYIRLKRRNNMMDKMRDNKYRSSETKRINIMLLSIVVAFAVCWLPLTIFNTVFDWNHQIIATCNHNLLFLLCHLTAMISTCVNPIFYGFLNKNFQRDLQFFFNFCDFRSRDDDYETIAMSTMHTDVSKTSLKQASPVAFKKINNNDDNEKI
Take B1: the “Y1R EC50 (nM) FLIPR” value was > 5000 nM.

Consider B2, for which the “Y1R EC50 (nM) FLIPR” value was > 5000 nM.

For H-IK(PEG30,000 SSA)[Pqa]RHYLNWVTRQ[NMeR]Y-NH2, the “Y1R EC50 (nM) FLIPR” value is > 5000 nM.

As for B3, the “Y1R EC50 (nM) FLIPR” value is > 5000 nM.

On to B4, for which the “Y1R EC50 (nM) FLIPR” value is > 5000 nM.

H-IK[Pqa]RHYLNWVTRQ[NMeR]Y-NH2 [H-Ile-Lys-Pqa-Arg-His-Tyr-Leu-Asn-Trp-Val-Thr-Arg-Gln-(NMe)Arg-Tyr-NH2]: the “Y1R EC50 (nM) FLIPR” value is 298 nM.

Take B5: the “Y1R EC50 (nM) FLIPR” value was > 5000 nM.

On to IK[Pqa]RHYLNWVTRQ[NMeR]Y-NH2 (also: mixture: PEG40,000 BTC on N-terminal Ile or on Lys ε-amino), for which the “Y1R EC50 (nM) FLIPR” value is > 5000 nM.

For the molecule B6, the “Y1R EC50 (nM) FLIPR” value is > 5000 nM.

For B7, the “Y1R EC50 (nM) FLIPR” value was > 5000 nM.

A further assay deals with Y4R. Description: cell-based or functional assay.
Consider B1, for which the “Y4R EC50 (nM) FLIPR” value is > 5000 nM.

In the case of B2, the “Y4R EC50 (nM) FLIPR” value was > 5000 nM.

For H-IK(PEG30,000 SSA)[Pqa]RHYLNWVTRQ[NMeR]Y-NH2, the “Y4R EC50 (nM) FLIPR” value is > 5000 nM.

For B3, the “Y4R EC50 (nM) FLIPR” value is > 5000 nM.

As to B4, the “Y4R EC50 (nM) FLIPR” value is > 5000 nM.

Turning to H-IK[Pqa]RHYLNWVTRQ[NMeR]Y-NH2 [H-Ile-Lys-Pqa-Arg-His-Tyr-Leu-Asn-Trp-Val-Thr-Arg-Gln-(NMe)Arg-Tyr-NH2], the “Y4R EC50 (nM) FLIPR” value is > 5000 nM.

IK[Pqa]RHYLNWVTRQ[NMeR]Y-NH2 (also: mixture: PEG40,000 BTC on N-terminal Ile or on Lys ε-amino): the “Y4R EC50 (nM) FLIPR” value was > 5000 nM.

B6: the “Y4R EC50 (nM) FLIPR” value is > 5000 nM.

On to B7, for which the “Y4R EC50 (nM) FLIPR” value was > 5000 nM.

The target in a further assay is T1, Y5R. Put plainly: cell-based or functional assay.
Regarding B1, the “Y5R EC50 (nM) FLIPR” value was > 5000 nM.

For B2, the “Y5R EC50 (nM) FLIPR” value is > 5000 nM.

As for H-IK(PEG30,000 SSA)[Pqa]RHYLNWVTRQ[NMeR]Y-NH2, the “Y5R EC50 (nM) FLIPR” value is > 5000 nM.

Consider B3, for which the “Y5R EC50 (nM) FLIPR” value was > 5000 nM.

Take B4: the “Y5R EC50 (nM) FLIPR” value was 5810 nM.

As to H-IK[Pqa]RHYLNWVTRQ[NMeR]Y-NH2 [H-Ile-Lys-Pqa-Arg-His-Tyr-Leu-Asn-Trp-Val-Thr-Arg-Gln-(NMe)Arg-Tyr-NH2], the “Y5R EC50 (nM) FLIPR” value was > 5000 nM.

For the molecule B5, the “Y5R EC50 (nM) FLIPR” value came to 352 nM.

Regarding IK[Pqa]RHYLNWVTRQ[NMeR]Y-NH2 (also: mixture: PEG40,000 BTC on N-terminal Ile or on Lys ε-amino), the “Y5R EC50 (nM) FLIPR” value is > 5000 nM.

B6: the “Y5R EC50 (nM) FLIPR” value is > 5000 nM.

Regarding B7, the “Y5R EC50 (nM) FLIPR” value was > 5000 nM.

The target of the next assay is T2, human NPY2 receptor. Put plainly: cell-based or functional assay.
In the case of B1, the “Y2R EC50 (nM) FLIPR” value amounted to 1.67 nM and the “Y2R EC50 (nM) cAMP” value was 1.37 nM.

Take B2: the “Y2R EC50 (nM) FLIPR” value amounted to 1.1 nM and the “Y2R EC50 (nM) cAMP” value was 0.26 nM.

Consider B4, for which the “Y2R EC50 (nM) FLIPR” value was 1.44 nM and the “Y2R EC50 (nM) cAMP” value is 0.07 nM.

H-IK[Pqa]RHYLNWVTRQ[NMeR]Y-NH2 [H-Ile-Lys-Pqa-Arg-His-Tyr-Leu-Asn-Trp-Val-Thr-Arg-Gln-(NMe)Arg-Tyr-NH2]: the “Y2R EC50 (nM) FLIPR” value stood at 0.44 nM and the “Y2R EC50 (nM) cAMP” value came to 0.25 nM.

For the molecule B5, the “Y2R EC50 (nM) FLIPR” value stood at 0.498 nM and the “Y2R EC50 (nM) cAMP” value came out at 0.5 nM.
